Laboratory results published in article PMC7532196.

Columns and labels:
Assay in all cases: EMSA
Details in all cases: EMSA: 30 ng probe in 20 ul, 10 mM Tris-HCl pH 7.4, 50 mM KCl, 5 mM MgCl2, 10% glycerol, room temperature 30 min, 6% PAGE
[1] = target: T1, MetR (Pseudomonas savastanoi pv. phaseolicola 1448A (P. syringae)) (UniProt Q48EZ0)
T1 sequence: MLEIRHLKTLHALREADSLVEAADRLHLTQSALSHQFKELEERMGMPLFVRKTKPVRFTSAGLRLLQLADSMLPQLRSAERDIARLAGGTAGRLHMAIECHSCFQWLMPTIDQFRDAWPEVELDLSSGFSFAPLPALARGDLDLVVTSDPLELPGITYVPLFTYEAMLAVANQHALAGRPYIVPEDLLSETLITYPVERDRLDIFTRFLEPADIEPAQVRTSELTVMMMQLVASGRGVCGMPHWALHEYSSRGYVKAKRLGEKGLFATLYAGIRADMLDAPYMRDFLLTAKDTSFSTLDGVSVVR

[2] = target: T2, PSPPH_3297 (Pseudomonas savastanoi pv. phaseolicola 1448A (P. syringae)) (UniProt Q48GM7)
T2 sequence: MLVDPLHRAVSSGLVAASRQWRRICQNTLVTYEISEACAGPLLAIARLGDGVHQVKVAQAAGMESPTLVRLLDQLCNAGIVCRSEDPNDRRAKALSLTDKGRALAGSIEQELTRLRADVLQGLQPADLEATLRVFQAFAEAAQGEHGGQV

[3] = target: T3, PcaQ (Pseudomonas savastanoi pv. phaseolicola 1448A (P. syringae)) (UniProt Q48JW3)
T3 sequence: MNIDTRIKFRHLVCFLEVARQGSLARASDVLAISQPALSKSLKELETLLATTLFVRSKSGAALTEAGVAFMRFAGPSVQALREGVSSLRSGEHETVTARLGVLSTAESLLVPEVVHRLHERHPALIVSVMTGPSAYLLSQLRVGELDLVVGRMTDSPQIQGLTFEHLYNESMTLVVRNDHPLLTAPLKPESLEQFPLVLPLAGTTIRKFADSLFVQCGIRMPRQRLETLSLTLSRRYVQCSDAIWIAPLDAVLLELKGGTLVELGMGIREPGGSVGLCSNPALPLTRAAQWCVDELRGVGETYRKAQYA

Sequence | binding [1] | further results
CATAGGGGTTGCCAAATGTGTCGAATGCCCCATAAGGTAGCGCTGTCTCATGGAAGGTGACAATGCTTTAT (double strand) [gntR negative control] | no binding | 
GATGGGTGTTCGGTGATGACTATATGACATCACGGAACCGACTTTAACAGATGAAAAAAATTCAATTACAGGCGAGGTACAGGTTGATCGGCCGCAGACGGCTACTTTTTAAGCGCTATCGGTCGCGCAGCCCCATAAGATAAAGGGCCTGCTCATTTGTATGCA (double strand) [PSPPH_4247 promoter] | binds | 
TCTACGCCCCCTCAAAAAACCCTTTCGGGCGTCCCTGCAACCCAAAAAGCCCCACTGGGCAGTTACGGGTTGACTGTAAGAACTTGTTACGAGATATTAGTTAGCATACTACTAATATCCTCCCTAACAATATTGTTCCTAACTAAATTGTTCACGACTCAG (double strand) [PSPPH_3297 promoter] |  | binding [2]: binds
TCAAGAATTACAGTTGTGCCTTGCGTCATATGTGATCTGCTTATATGTATATGAAAAAAACTCATTATGAGTCAGTCTTGTATAACGTATTTAATACGGCCCTTTAATCAAACTACAAACACTTTTTTCAGGGGATTTCTGTGAA (double strand) [PSPPH_1024 promoter] | binds | 
ACAATTAGTTGAATAATTTCCTTGGATATGAGGAAGGCGGGCTACAGGTGAACGTATAAAAAATCATGGTTTTAGTTATGCATAACCATGAAAATAAAGGAATTTTTATTAAATGTTGGTATTAATCAAAGGCACGTTTAATCACGCCGTCTA (double strand) [katB promoter] |  | binding [3]: binds
GGTGCGGCATATCCCGTAGGCTCTGTCATTAAAAATGGCACAATTCTACTAGGCCGTCATTGCCTCCAACATGAATGATTTTCATGCAAAAGCCGCAGCACCACCAAAACCGTTCCGGTTTGCTATCATCCCGTTCTTTAAAGTA (double strand) [PSPPH_2621 promoter] | binds | 
GTACCTGCCAGAATGTTGAGGGTGATATTGATCCATAACCTTAGCCTCCTACGCCTCTTTAGCTGGACAGCAAAAATTACCGAATTAGCTAAACATTAGGAATAATTCTAGCATTAGCTGTTCAGCTAACAAAGGCCTAAAAG (double strand) [PSPPH_0985 promoter] |  | binding [3]: binds
